According to patent US20230374148A1, “BINDING MOLECULES THAT MULTIMERISE CD45” (UCB BIOPHARMA SRL, priority 2020, published 2023):

What was measured:
[1] = biological target: T1, CD45 domains 1-4 of the extracellular domain (UniProtKB P08575, residues 225-573) with C-terminal TEV cleavage site and 10-His tag (human); assay: sedimentation velocity analytical ultracentrifugation, molar 1:1 mixture of CD45 ECD and BYbe
[2] = biological target: T2, human CD45 on cells (PBMC, whole blood cells, macrophages, leukaemia and lymphoma cell lines) (human, UniProt P08575 26-1306); assay: cell-based or functional assay
T2 sequence: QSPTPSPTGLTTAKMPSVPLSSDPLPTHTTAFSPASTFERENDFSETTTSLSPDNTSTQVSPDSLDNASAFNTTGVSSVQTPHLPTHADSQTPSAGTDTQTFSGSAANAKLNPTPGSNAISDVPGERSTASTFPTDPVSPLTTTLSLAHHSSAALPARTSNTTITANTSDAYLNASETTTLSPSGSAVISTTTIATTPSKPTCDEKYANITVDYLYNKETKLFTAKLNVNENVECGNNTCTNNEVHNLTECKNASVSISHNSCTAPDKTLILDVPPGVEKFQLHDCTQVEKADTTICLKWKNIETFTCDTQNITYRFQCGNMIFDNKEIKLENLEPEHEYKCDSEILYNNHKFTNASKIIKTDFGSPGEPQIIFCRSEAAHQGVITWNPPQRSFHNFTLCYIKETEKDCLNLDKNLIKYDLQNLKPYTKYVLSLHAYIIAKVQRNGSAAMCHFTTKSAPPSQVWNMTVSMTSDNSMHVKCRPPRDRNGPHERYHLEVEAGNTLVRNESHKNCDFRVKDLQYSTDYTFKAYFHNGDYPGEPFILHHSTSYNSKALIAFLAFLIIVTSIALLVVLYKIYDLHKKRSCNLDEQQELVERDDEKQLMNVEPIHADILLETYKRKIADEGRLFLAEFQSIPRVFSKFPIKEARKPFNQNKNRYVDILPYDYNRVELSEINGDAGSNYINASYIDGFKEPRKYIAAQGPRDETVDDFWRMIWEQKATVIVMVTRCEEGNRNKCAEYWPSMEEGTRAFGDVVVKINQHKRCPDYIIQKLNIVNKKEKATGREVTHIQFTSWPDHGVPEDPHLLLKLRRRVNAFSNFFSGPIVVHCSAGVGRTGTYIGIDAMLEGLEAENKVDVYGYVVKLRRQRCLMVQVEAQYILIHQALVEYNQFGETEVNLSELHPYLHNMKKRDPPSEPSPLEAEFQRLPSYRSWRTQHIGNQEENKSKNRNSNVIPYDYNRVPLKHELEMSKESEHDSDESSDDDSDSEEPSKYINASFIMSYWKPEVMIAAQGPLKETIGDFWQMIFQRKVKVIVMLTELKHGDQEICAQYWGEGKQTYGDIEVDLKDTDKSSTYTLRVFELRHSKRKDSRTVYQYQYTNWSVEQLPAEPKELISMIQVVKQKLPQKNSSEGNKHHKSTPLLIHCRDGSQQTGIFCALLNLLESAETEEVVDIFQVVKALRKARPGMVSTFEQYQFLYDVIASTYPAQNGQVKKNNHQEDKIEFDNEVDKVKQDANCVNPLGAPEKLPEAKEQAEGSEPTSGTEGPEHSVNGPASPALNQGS

[3] = biological target: T1, CD45 domains 1-4 of the extracellular domain; assay: sedimentation peaks of the mixture of CD45 ECD and 4133-6294 BYbe; stoichiometry assigned from modelled S values
[4] = biological target: T1, CD45 domains 1-4 of the extracellular domain; assay: mass of the peaks seen in the mixture of CD45 ECD and 4133-6294 BYbe in solution; theoretical mass 276 kDa
[5] = biological target: T1, CD45 domains 1-4 of the extracellular domain; assay: mass of the peaks seen in the mixture of CD45 ECD and 4133-6294 BYbe in solution; theoretical mass 414 kDa
[6] = biological target: T2, human CD45 on cells (PBMC, whole blood …); assay: cell-based or functional assay; remark: listed apart in the source
[7] = biological target: T1, CD45 domains 1-4 of the extracellular domain; assay: mass of the peaks seen in the mixture of CD45 ECD and 4133-6294 BYbe in solution; theoretical mass 552 kDa
[8] = biological target: T2, human CD45 on cells (PBMC, whole blood …); assay: cell-based or functional assay; remark: listed apart in the source
[9] = biological target: T1, CD45 domains 1-4 of the extracellular domain; assay: mass photometry of the mixture of CD45 ECD and 4133-6294 BYbe, not pre-incubated [C]
[10] = biological target: T2, human CD45 on cells (PBMC, whole blood …); assay: cell-based or functional assay; remark: listed apart in the source
[11] = biological target: T1, CD45 domains 1-4 of the extracellular domain; assay: mass of the peaks seen in the mixture of CD45 ECD and 4133-6294 BYbe in solution; theoretical mass 138 kDa

B1: 4133-6294 BYbe (bispecific antibody)
heavy: QEQLVESGGGLVQPEGSLTLTCTASGFSFSGNYYMCWVRQAPGKGLEWIGCLYTGSSGSTYYASWAKGRFTISKTSSTTVTLQMTSLTAADTATYFCARDLGYEIDGYGGLWGQGTLVTVSSGQPKAPSVFPLAPCCGDTPSSTVTLGCLVKGYLPEPVTVTWNSGTLTNGVRTFPSVRQSSGLYSLSSVVSVTSSSQPVTCNVAHPATNTKVDKTVAPSTCSKPGGGGSGGGGSEVQLVESGAELARPGASVKMSCKASGYTFTSYTMHWVKQRPGQCLEWIGYINPSSGYTEYNQKFKDKTTLTADKSSSTAYLQLSSLTSEDSAVYYCARVGDGFYPSWLAYWGQGTLVTVSSGGGGSGGGGSGGGGSGGGGSDIQMTQSPKFLLVSAGDRVTITCKASQSVRNDVAWYQQKPGQSPKLLIFYASKRYTGVPDRFTGSGYGTDFTFTISTVQAEDLAVYFCQQDYSSPTTFGCGTKLEIK
light: AQVLTQTPSPVSAVVGGTVSISCQASQSVYNNNNLSWYQQKPGQPPKLLIYDASKLASGVPSRFKGSGSGTQFTLTISGVQCDDAATYYCLGGYYSSGWYFAFGGGTKVVVKRTPVAPTVLIFPPAADQVATGTVTIVCVANKYFPDVTVTWEVDGTTQTTGIENSKTPQNSADCTYNLSSTLTLTSTQYNSHKEYTCKVTQGTTSVVQSFNRGDC
[1]
  Percentage of area under the curve (CD45 1:1 BYbe complex): 12%
  Percentage of area under the curve (CD45 2:2 BYbe complex): 37.7%
  Percentage of area under the curve (CD45 3:3 BYbe complex): 35.7%
  Percentage of area under the curve (CD45 4:4 BYbe complex): 3.46%
  Percentage of area under the curve (unbound CD45 in the 1:1 mixture): 9.21%
[2]
  EC50 of reduction, CD4+ cells in whole blood, 5 h, Donor 1: 0.25 nM
  EC50 of reduction, CD4+ cells in whole blood, 5 h, Donor 2: 0.33 nM
  EC50 of reduction, total lymphocytes in whole blood, 5 h, Donor 1: 0.37 nM
  EC50 of reduction, total lymphocytes in whole blood, 5 h, Donor 2: 5.99 nM
[3]
  experimental S value of the complex CD45 1:1 BYbe: 6.9 S
  experimental S value of the complex CD45 2:1 BYbe: 7.15 S
  experimental S value of the complex CD45 2:2 BYbe: 8.78 S
  experimental S value of the complex CD45 3:3 BYbe: 10 S
  experimental S value of the complex CD45 4:3 BYbe: 11.1 S
  experimental S value of the complex CD45 4:4 BYbe: 13.3 S
[4]
  observed mass of the complex 2× (CD45 + BYbe): 274 kDa
[5]
  observed mass of the complex 3× (CD45 + BYbe): 415 kDa
[6]
  EC50 of reduction of lymphocytes in PBMC, 24 h (UCB Cone-802): 0.15 nM
  EC50 of reduction of lymphocytes in PBMC, 24 h (UCB Cone-811): 0.1 nM
[7]
  observed mass of the complex 4× (CD45 + BYbe): 555 kDa
[8]
  EC50 of subset cell reduction, B cells in PBMC, 24 h: 1.5 nM
  EC50 of subset cell reduction, CD4+ Memory cells in PBMC, 24 h: 0.222 nM
  EC50 of subset cell reduction, CD4+ Naive cells in PBMC, 24 h: 0.524 nM
  EC50 of subset cell reduction, CD4+ cells in PBMC, 24 h: 0.302 nM
  EC50 of subset cell reduction, CD8+ cells in PBMC, 24 h: 0.187 nM
[9]
  counts in the peak at 75 kDa (arrow from the BYbe schematic; unbound BYbe according to the text): 3830 counts
  counts in the peak at 136 kDa, complex marked (1x): 3060 counts
  counts in the peak at 274 kDa, complex marked (2x): 3510 counts
  counts in the peak at 415 kDa, complex marked (3x): 464 counts
  counts in the peak at 555 kDa, complex marked (4x): 137 counts
  percent of counts in the peak at 75 kDa (arrow from the BYbe schematic; unbound BYbe according to the text): 31%
  percent of counts in the peak at 136 kDa, complex marked (1x): 24%
  percent of counts in the peak at 274 kDa, complex marked (2x): 28%
  percent of counts in the peak at 415 kDa, complex marked (3x): 4%
  percent of counts in the peak at 555 kDa, complex marked (4x): 1%
[10]
  EC50 of % cell reduction, CCRF-SB cells, 21 h: 0.308 nM
  EC50 of % cell reduction, Dakiki cells, 21 h: 0.309 nM
  EC50 of % cell reduction, Jurkat cells, 21 h: 0.117 nM
  EC50 of % cell reduction, MC116 cells, 21 h: 0.005 nM
  EC50 of % cell reduction, NU-DUL-1 cells, 21 h: 0.497 nM
  EC50 of % cell reduction, OCI-Ly3 cells, 21 h: 0.349 nM
  EC50 of % cell reduction, Raji cells, 21 h: 0.397 nM
  EC50 of % cell reduction, Ramos cells, 21 h: 0.14 nM
  EC50 of % cell reduction, SU-DHL-4 cells, 21 h: 0.141 nM
  EC50 of % cell reduction, SU-DHL-5 cells, 21 h: 0.043 nM
  EC50 of % cell reduction, SU-DHL-8 cells, 21 h: 1.46 nM
  EC50 of % cell reduction, THP-1 cells, 21 h: 1.54 nM
[11]
  observed mass of the complex 1× (CD45 + BYbe): 136 kDa
